The source of these data is patent publication US20090137484A1, “Neuronal Network-Interacting Peptide” (NATIONAL UNIVERSITY OF SINGAPORE, priority 2004, published 2009).

The labels stand for the following.
B2: third Grb4 SH3 domain, Grb4 residues 199-257 (other, human, UniProt O43639 199-257, looked up)
chain: VVQTLYPFSSVTEEELNFEKGETMEVIEKPENDPEWWKCKNARGQVGLVPKNYVVVLSD
modifications: also: His-tag, sequence and removal not given here, 15N-labelled
notes: range 199-257; Expressed in E. coli as a His-tagged protein; It was 15N-labelled for NMR; also called SH3_3
B3: Nogo-A (32-200) (other)
chain: EDEEEEEEEEEEDEDEDLEELEVLERKPAAGLSAAPVPTAPAAGAPLMDFGNDFVPPAPRGPLPAAPPVAPERQPSWDPSPVSSTVPAPSPLSAAAVSPSKLPEDDEPPARPPPPPPASVSPQAEPVWTPPAPAPAAPPSTPAAPKRRGSSGSVDETLFALPAASEPVI
notes: Recombinant, cloned into pET32a and expressed in E. coli

Where a SMILES comes first, the peptide text is derived from it. Where no end group is shown, it is not given here.

In test [1] the target is T1, Grb4 SH3_2 (second SH3 domain, Grb4 residues 115-170) (Homo sapiens, UniProt O43639).
T1 construct: corresponding to the human Grb4 residues 5-61; 115-171 and 199-257 respectively; His-tag; made in house; host or cells: E. coli BL21
T1 sequence (O43639 115-171): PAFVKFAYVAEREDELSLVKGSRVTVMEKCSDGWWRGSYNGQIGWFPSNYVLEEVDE
The test can be described thus: 1H-15N NMR HSQC titration of Nogo fragments with Grb4 SH3_2. Type of test: binding. Conditions: for Binding detected by NMR: Grb4 fragment SH3_2. On the procedure:
(§1) All calorimetric titrations were performed on a Microcal VP ITC machine (Microcal, USA). The protein/peptide samples were dissolved in the 50 mM Tris buffer (pH 7.0), with 3 mM 2-mercaptoethanol. After centrifugation for 15 min, the samples were degassed for 15 min to avoid the bubble formation. The Grb4 SH3 samples with a concentration of 0.025 or 0.05 mM were placed in the 1.4 ml reaction cell and 1.0 mM Nogo samples were loaded into the […] injection syringe. All titrations were performed at 25° C. and the obtained data was fitted using the ORIGIN software (Originlab Corporation). NMR experiments were performed on a 500 MHz Bruker DRX spectrometer equipped with an actively shielded cryoprobe and an 800 MHz Bruker Avance spectrometer (Sattler, M., et al., (1999) Prog. NMR Spectrosc. 34, 93-158.). NMR data was processed with NMRPipe (Delaglio, F et al., (1995) J. Biomol. NMR 6, 277-293) and analysed with NMRView (Johnson, B. A. & Blevins, R. A. (1994). J. Biomol. NMR 4, 603-614.).
The ^1H-^15N HSQC titration experiments were conducted according to our previous procedure (Song J. (2003) J Biol Chem. 278, 24714-20). For structure determination, backbone sequential assignments were achieved by analysing HNCACB, CBCA(CO)NH, HNCO experiments while side chain assignments were obtained from (H)CC(CO)NH, H(CCO)NH, HCCH-TOCSY, ^15N-edited TOCSY-HSQC and NOESY-HSQC. Structure determination of the third Grb4 SH3 domain was conducted by a standard CNS (Crystallography and NMR System) protocol as described in our previous publication (Li M, et al., 2004, Eur J. Biochem. 271, 3512-22) with NOE constraints derived from ^15N- and ^13C-NOESY spectra and dihedral angle constraints from TALOS prediction using 5 different chemical shifts. The accepted NMR structure with the lowest energy was selected for analysis and manipulation to generate FIG. 1 by use of MolMol graphic software (Koradi, R., et al., (1996) J. Mol. Graphics. 14, 51-55.). […]

In test [2] the target is T2, Grb4 SH3_3 (third SH3 domain, Grb4 residues 199-257) (Homo sapiens, UniProt O43639).
T2 construct: corresponding to the human Grb4 residues 5-61; 115-171 and 199-257 respectively; His-tag; made in house; host or cells: E. coli BL21
T2 sequence (O43639 199-257): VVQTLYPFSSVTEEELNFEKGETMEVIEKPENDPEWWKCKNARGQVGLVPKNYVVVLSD
The test can be described thus: 1H-15N NMR HSQC titration of Nogo fragments with Grb4 SH3_3. Conditions: two-fold excess of the peptide (FIG. 1b). Type of test: binding. On the procedure:
as §1
(§2) The ^1H-^15N HSQC titration experiments were conducted according to our previous procedure (Song J. (2003) J Biol Chem. 278, 24714-20). […]
To further validate the identified binding interaction, we determined the solution structure of the third Grb4 SH3 domain by use of heteronuclear tripleresonance NMR methodology as described briefly in Examples 1 and 2. […]

Test [3] concerns the target T3, Grb4 SH3_3 (third SH3 domain, Grb4 residues 199-257) (Homo sapiens, UniProt O43639).
T3 construct: corresponding to the human Grb4 residues 5-61; 115-171 and 199-257 respectively; His-tag; made in house; host or cells: E. coli BL21
T3 sequence (O43639 198-256): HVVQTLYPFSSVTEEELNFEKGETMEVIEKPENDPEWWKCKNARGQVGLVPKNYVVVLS
The test can be described thus: Isothermal titration calorimetry of Nogo fragments with Grb4 SH3_3. Type of test: binding. On the procedure:
as §1
Both Nogo-A (1-200) and Grb4 (115-257) were further dissected into different Nogo fragments and two different […] domains based on sequence alignment as detailed in Table 1 and the interactions among them were studied first by NMR HSQC titration followed by isothermal titration calorimetry (ITC) to obtain thermodynamic parameters of the binding interaction. As presented in Table 2, two complete sets of thermodynamic parameters were derived from ITC measurements, one set for the interaction between Nogo-A (32-200) and the third Grb4 SH3 domain and another set for the interaction between the 11-residue Nogo-A (171-181) and the third Grb4 SH3 domain. […] Many factors account for this observation. One possibility is that in the Nogo-A (32-200) protein, this 11-residue binding region is less accessible. Alternatively, the presence of other regions without any significant contribution to the binding will unavoidably reduce the binding affinity.
(In general: In ITC the heat of successive injections is recorded.)

The target of test [4] is B2. The test can be described thus: ITC, comparison of the two sets of Table 2. Here is the method: as §1
Test [5] concerns the target B2. The test can be described thus: ITC at 25 C, peptide in syringe, SH3_3 (50 µM) in cell, Tris pH 7.0. Also on record: ΔS: unit not given here. Here is the method:
as §1

The test “Nogo-A (32-200)” addresses B3. The test can be described thus: ITC at 25 C, Nogo in syringe, SH3_3 (25 µM) in cell, Tris pH 7.0. Also noted: ΔS: unit not given here. Here is the method:
as §1

Test [6] has as its target T4, Grb4 SH3_23 (second and third SH3 domains, Grb4 residues 115-257) (Homo sapiens, UniProt O43639).
T4 construct: Grb4 (115-257) containing the second and third SH3 domains were expressed; His-tag; made in house; host or cells: E. coli BL21
T4 sequence (O43639 115-257): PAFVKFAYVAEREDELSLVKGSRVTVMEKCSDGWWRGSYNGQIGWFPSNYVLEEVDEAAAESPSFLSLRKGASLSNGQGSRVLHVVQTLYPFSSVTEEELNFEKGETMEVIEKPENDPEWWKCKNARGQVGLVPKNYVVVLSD
The test can be described thus: Isothermal titration calorimetry of Nogo fragments with Grb4 SH3_23. Conditions: Grb4 fragment SH3_23. Type of test: binding. On the procedure:
as §1
(§3) Both Nogo-A (1-200) and Grb4 (115-257) were further dissected into different Nogo fragments and two different […] domains based on sequence alignment as detailed in Table 1 and the interactions among them were studied first by NMR HSQC titration followed by isothermal titration calorimetry (ITC) to obtain thermodynamic parameters of the binding interaction. […]

Test [7] deals with T1, Grb4 SH3_2 (second SH3 domain, Grb4 residues 115-170). The test can be described thus: Isothermal titration calorimetry of Nogo fragments with Grb4 SH3_2. The format is binding. Conditions: Grb4 fragment SH3_2. On the procedure: as §1, §3
For test [8], the target named is B2. The test can be described thus: ITC at 25 C, Nogo in syringe, SH3_3 (25 µM) in cell, Tris pH 7.0. Also on record: ΔS: unit not given here. On the procedure:
as §1

Test [9] has as its target T4, Grb4 SH3_23 (second and third SH3 domains, Grb4 residues 115-257). The test can be described thus: 1H-15N NMR HSQC titration of Nogo fragments with Grb4 SH3_23. The format is binding. Conditions: four-fold excess of unlabelled Nogo protein; pH 6.8, 20° C. (FIG. 2). Here is the method: as §1, §2
The present inventors also determined whether a cross-talk existed between Nogo and Eph receptor-ephrinB mediated signalling networks, and whether Grb4 was the convergence point. […]

Where [10] appears, read: ITC at 25° C., Tris pH 7.0, Nogo in syringe, SH3_3 in cell (25 or 50 μM).

As to `CC(=O)N[C@@H](CO)C(=O)N[C@H](C(=O)N1CCC[C@H]1C(=O)N[C@@H](C)C(=O)N[C@@H](C)C(=O)N1CCC[C@H]1C(=O)N[C@@H](CCCCN)C(=O)N[C@@H](CCCNC(=N)N)C(=O)N[C@@H](CCCNC(=N)N)C(=O)NCC(=O)N[C@@H](CO)C(N)=O)[C@@H](C)O` [Nogo-A (171-181), Ac-STPAAPKRRGS-NH2] (Ac-STPAAPKRRGS-NH2), the “Binding with the second Grb4 SH3 domain (specificity statement)” value in test [1] is recorded as “no significant binding”. Moreover, the “HSQC peaks of the 15N-labeled third SH3 domain undergoing a significant shift” value in [2] is reported as ~50%. For the same molecule, in [3] (setting [10]), the Ka is 357000 ± 21000 M⁻¹; the affinity, expressed as Kd, was 2.8 µM; the Stoichiometry n was determined as 0.95 ± 0.068; the ΔH is −3,310 ± 499 cal/mol. Moreover, the ΔS in test [3] (setting [10]) is 14.3 cal/(mol·K). Besides, the “Binding affinity to the third Grb4 SH3 domain relative to Nogo-A (32-200)” value in test [3] (higher than Nogo-A (32-200)) is given as “about 30 fold”.
As for “Ac-ARPPPPPPAS-NH2 [Nogo-A (141-150), chemically synthesised peptide, fragment 141-150 of Nogo A]”, the “Binding detected by ITC” value in test [3] (Grb4 fragment SH3_3) is on record as “Very weak”.

B1: Nogo-A (171-181) Ac-STPAAPKRRGS-NH2 (peptide)
peptide: Ac-STPAAPKRRGS-NH2
notes: Chemically synthesised by the Fmoc method; also called 11-residue Nogo-A (171-181) peptide
On to B1, for which the “fold higher binding affinity than Nogo-A (32-200)” value in [4] was ~30 fold. In [5], the Ka was determined as 357000 M⁻¹, the Stoichiometry n came out at 0.95, the ΔH was -3.31 kcal/mol and the ΔS stood at 14.3.
In the case of B2, in the test with Nogo-A (32-200), the Ka was 11500 M⁻¹ and the affinity, expressed as Kd, was 87 µM.
B3: in test [6], the “Binding detected by ITC” value was “Very weak”. In [1], the “Binding detected by NMR” value is reported as “Very weak”. Also, the “Binding detected by ITC” value in test [7] is “Very weak”. In test [8], the Stoichiometry n turned out to be 1.13, the ΔH amounted to 69.6 kcal/mol and the ΔS turned out to be 252. Further, in test [3] (setting [10]), the Ka was determined as 11500 ± 2200 M⁻¹ and the affinity, expressed as Kd, was 87 µM.

B4: Nogo-A (1-200): recombinant N-terminal fragment of human Nogo-A, residues 1-200, expressed in E. coli (protein)
chain: MEDLDQSPLVSSSDSPPRPQPAFKYQFVREPEDEEEEEEEEEEDEDEDLEELEVLERKPAAGLSAAPVPTAPAAGAPLMDFGNDFVPPAPRGPLPAAPPVAPERQPSWDPSPVSSTVPAPSPLSAAAVSPSKLPEDDEPPARPPPPPPASVSPQAEPVWTPPAPAPAAPPSTPAAPKRRGSSGSVDETLFALPAASEPVI
As for B4, the “Binding detected by NMR” value in test [1] is recorded as “Very weak”. In addition, the “Shifts of HSQC peaks of 15N-labeled Grb4 (115-257)” value in [9] was “significant shifts of the HSQC peaks”.

As a reminder, the Kd is a measure of binding affinity in units of concentration.
